Experiment: label from the status in PepcDB records

| Sequence | protein production |
| --- | --- |
| MNPFTYSKPTDITAAVNLSGPATRFIAGGTNLLDLMKENVATPEHLIDITGLPLREVSETASGGLMIGALVSNADLAYHPLIEARYPLLSKAVLAGASPQLRNMASTGGNLLQRTRCYYFYDTGVPCNKREPGSGCPAREGLNRIHAILGASDECVATHPSDMCVALAALEAVVHVEGRAGRRTIEFADFHRLPGDAPQRDNQLADDELIIAVELPAQGFASHNAYLKIRDRASYAFALISVAAAIDLDGDVVRDVRLALGGVAHKPWRDKAVEALLIGKPVTREHFAAAADAMLEDAKPLEHNGFKVRLARRAIIRALSDAATGGSAL | not failed |
| MNPILNLIISFIALLWAANHLVAGSSGLAIRFQLSPLMIGLTIVALGTSAPELFISIISSLKDKNDLAIGNAIGSNIANIGLILGIIILIKPTSFHFNKLKKVYPILIIVMLFAYSLILDGYLGTIDGCLFLIGCIAVLCYFIYLASHSPKRDLSVNEFRPAILSYRSTPSNLLSIAIGLLILPICSKYLVYNASEIAKWAGISEFTIGLTIIAIGSSLPELTTALVAAIKGEDSIAIGTIIGSNIYNLLLILALPGLLNPTKISSVVLWRDMPVMLSITLLLLFLNYYYQKKTSSWPGGILLLVYFCYMASLIINAHS | failed |
| MNPKVKGIIAILVSAIGFSFMSVFFRLAGDLPVFQKSLARNLVAMFIPLYFIYKYKQPLFGKLSSQPLLISRSTLGLIGVLLNIYAIDHMILSDADTLMKLNPFWTILLSLIFLNEKVRNYQIIAMVIAIFGMLFVVKPEFSSSMIPAIGGLFSGIFAASAYTCVRALSTREAPYTIVFYFSFFSIVVLIPFTIFTFEPMSMMQVIYLIGAGLAAAAGQIGITLAYSYAPAKDISIFTYASIIFTAFFGFILFGESPDFYAILGYVIIIASSYYMFEKARRQPLSIQKEEQKPKT | failed |
| MNPRLALALKLLEAGLVESAAIPVAQALERDPDDPRAHHLAGLIARRGGDGALALAAFTRGLAVAADDAPLRIERAGLLLDLGRAEEALADLAVALALAPDHQAVLSTQGRALIDLGRPGEALAPLRRARALAPDDVAPAHNLGRALLALDRPDEALPLLEAAVARAPGAIDPRADLAEALRRLDRPGDAAQLLRAVLADAPGRADLADALAGALLAAGAVDESVAVLRASLDKAPTHGAGWVNLAAALIETGALDEATAAADRALALDPDDADAKVNRAFARCLADDYEQGFADYAHRWRTAAFQRPYPPVTAPPWAGEPLGEGTLLVRGEQGLGDQIMAARFLPWLSKRPDRPRRIVFECHPCLHRLLAEGLEAGIDLLAMGRPPPPVAAWIGALDLARMAGVTAGVMPVDVPYLKARPPVPPLAPPLPPGGRGRLGLVWAGKTRPRDRSCPLEPLAGLCVDQGWTVHALQLGPRRADLAGLPAGLGVIDEGDRLGDMAATASVMAGLDLVVAVDTAVAHLAGALGLPCALLLLATPDWRWGQKASRTVWYPSLRLFRQPHPGDWDGAFDAVRRAFAQGWPLS | failed |
| MNQEKLLALMMDLHQDGARQGPGSETETLRALELTRIDPLAKLQVADIGCGTGASTLVLASKLQNAQITAIDIFPEFLDVLSTRAKVMGYSEKIETLTESMDKLSFADESLDLIWSEGAIYNLGFAQGIECWKPMLKTGGVLAVSEITWLNPLPPEEIRQHWNTEYPEIATASEKIAILEHGGYDLIGYFILPSTNWLDSYYTPVEERIHDFLKRHRGDLEAEELIKMERREMDLYSRFKNWFSYGFYVARKR | failed |
| MNQHTLLPKKTERLQYFGSVSPIKGEKPVEKEKMKDLQNIRKDYFFDIQHVGVANVSHPVTITSAMMPAEQTTAANFTMTCNLPRNQKGINMSRLTELLQVYHQNGWILSFSSLQQFTKELAENMDTSSATVEVRFPWFFERKSPKLEKAGLMHADIFMSVTYRKDQPFKQRAGISAKVTTLCPCSKEISEYSAHNQRGTVKHLGRIFTRAASLPSDVKADLPHAAESNASARLHPVLKRPDEKAVTETAYENPRFVEDLARLIAADLFELEWVSAFEIECRNEESIHLHRCLCEVCFSKEVDKI | failed |
| MNQLEFEQVSLYQIIVDSEKLAQEIYYQIEDEEISFYEAAYLYDVDAVRRQRCGYEGKVYRFSLPVNVATVIFRTSPKQLISPLQTEQGYHLFMVEEFIPAELEHHHHHH | failed |
| MNQLTAYTLRLGDNCLVLSQRLGEWCGHAPELEIDLALANIGLDLLGQARNFLSYAAELAGEGDEDTLAFTRDERQFSNLLLVEQPNGNFADTIARQYFIDAWHVALFTRLMESRDPQLAAISAKAIKEARYHLRFSRGWLERLGNGTDVSGQKMQQAINKLWRFTAELFDADEIDIALSEEGIAVDPRTLRAAWEAEVFAGINEATLNVPQEQAYRTGGKKGLHTEHLGPMLAEMQYLQRVLPGQQW | not failed |
| MNQPSSLAADLRGAWHAQAQSHPLITLGLAASAAGVVLLLVAGIVNALTGENRVHVGYAVLGGTAGFAATALGALMALGLRAISARTQDAMLGFAAGMMLAASAFSLILPGLDAAGTIVGPGPAAAAVVALGLGLGVLLMLGLDYFTPHEHERTGHQGPEAARVNRVWLFVLTIILHNLPEGMAIGVSFATGDLRIGLPLTSAIAIQDVPEGLAVALALRAVGLPIGRAVLVAVASGLMEPLGALVGVGISSGFALAYPISMGLAAGAMIFVVSHEVIPETHRNGHETTATVGLMAGFALMMFLDTALG | failed |
| MNQSIIFTEQLTWDVQLSAIHFTAQQQGMVIDCYIGQKVLEHLAAEKINNSEQALSLFEQFRFDIEEQAEKLIEQEAFDVQGHIQVERVD | not failed |
| MNQVEMTEFPVGKPEEALYGVASTPDGALWFTLAKGNAIGRLSPDGEVSRFPLPHADGQPTTITCGPDGRPWFTLSSANAVGRLSPDGALRMFELPRPASRPFGIAAGHDGCLWFAEMAGDRIGRITIDGDIEEYDLPVKGGYPSCMAAGRDGLMWFTLNQAGAIGSISATAAPRIFPLGAADAAPVGIASDAQGALWIAQAGNGAIARFDAGGRITEFPLHSRAARPHALAADAAGNLWFTEWGANRIGRISEAGDTAGYELAAPGSEPHGIAIDPHGCVWAALETGSLVRLQASPRD | failed |
| MNQYVKIEVQQGDTLWSIADQVADTKKINKNDFIEWVADKNQLQTSDIQPGDELVIPLKKKHQDAYELATLEHHHHHH | failed |
| MNRDLSSFKRTMNTLAVSSDVAFFNITLRFWIRRNDETREQGKFKPHTDLPRLQSFYLDYYQKNVMDVIKIIGNQYTILKEIESSAHSAAIRAIHAALPPHKINGDSRKQADSYIQHACDTAGVLFRVLELLSEDVQLPSEFLEADADVKQLAEIFRPYNIIPLYICGKYSMKRLPEY | failed |
| MNREEVLKQLQSIFRDILKKDNVCIDESSTSKDVDGWDSLTHMQIIAQIEKHFGVRFNFREVIKFKNVGDLCSALLTKMELEHHHHHH | not failed |
| MNRISVVILNWNGCEMLRSFLPSVLRYSEAEGVEVCVADNGSTDQSVEMLRREFPSVRRILLDGNHGFADGYNLALRQVEAEYVVLLNSDVEVTGQWLQPMAAYLDAHPEVAACQPKIRSWRQKEWFEYAGAAGGFIDRYGYPFCRGRVMGVVEADRGQYDTVLPIFWATGAAMFIRLADYREAGGLDGRFFAHMEEIDLCWRLRARGRGIVCIPQSVVYHVGGATLKKENPHKTFLNFRNNLVMLYKNLPDRELAGVMRVRCWLDYIAAATFALKGQPANAKAVVRARREFKLLRDSFRDARAENLRKTSSHFIPERIKSSILVQFYVKGRKFFSQLSDLKG | failed |
| MNRIWLRAIILTASSALLAGCQFGGLNSLPLPGTAGHGEGAYSVTVEMADVATLPQNSPVMVDDVTVGSVAGIVAVQRPDGSFYAAVKLDLDKNVLLPANAVAKVSQTSLLGSLHVELAPPTDRPPTGRLVDGSRITEANTDRFPTTEEVFSALGVVVNKGNVGALEEIIDETHQAVAGRQAQFVNLVPRLAELTAGLNRQVHDIIDALDGLNRVSAILARDKDNLGRALDTLPDAVRVLNQNRDHIVDAFAALKRLTMVTSHVLAETKVDFGEDLKDLYSIVKALNDDRKDFVTSLQLLLTFPFPNFGIKQAVRGDYLNVFTTFDLTLRRIGETFFTTAYFDPNMAHMDEILNPPDFLIGELANLSGQAADPFKIPPGTASGQ | failed |
| MNRLKKWIRYVPDRIDDGLRYLCGRMSPDVRLVCVVVMLTGFGCLSIYMTVSSIYRIGRHEGEQLQMDHIRRMELYRGINKDSINIKNQVDYGEPKKSGTATGERCNA | failed |
| MNRVYVGTVSAVTDIGVFVNLNKRLRGLIHRRNLGNNRFSEDEEILVQVSGIGLSGEIDLKPVKMDGYKVVEISKEVGRVEIAELENLEHHHHHH | failed |
| MNSEFDVIDRYFTRPRRNALLGPGDDAALIACKPGMDWAISVDTLVAGRHFFPDVDPATLGHKVLAVNLSDMAAMGATPCWATLSLTLTETLAQDDIWLKAFSSGFFALADQYQVELIGGDTTGGPLNISVQIIGEVERGKALRRSGAQPGDDIWVSGHLGDAALALQSLQQHVTLTAQEAAPCLAALHTPMPRVALGKALVNVAHSAIDISDGLLADLGHILDRSGVAATIDFDHIPRSPALKNKLQPENTVTNTICQLAIDCLLAGGDDYELCFTVPESKRDAVIQLAQESGILLSRIGKIIPGKGLTVLGTDSNPLIFKNKGYDHFSAR | failed |
| MNSENHPATTFKSRIKSSLPYTLAVAIIGFVSLWVRMRPYDHVFLSNGFVKFTSNDPWYHIRTLNVLLENYPQRMFFNPMTNYPYGSYIHFGPLYDQMMAITSLILGLGSPSQDLINTVGAYFPAVLGALTVIPVYYIGKYLGGRKTGILAAVFIAFAPGQFLSRSLIGFTDHHVAESLFSTFFMMFFMLAIITAKKKNLRFEDLFNKNFIVVKEPLIYSIIAGVMYSAYQLSWPGASLFLFIALVYAVVQYILDNFNGESSDYLGFTGIITFLVSAILILPFIHPELGFSMYYYTWFHVATAIGTMAGFAALSLIQREFKNRNLKAYYYPLAIFLLGFLGLLAIRFASPSVYSLIISAPNTVFGVLTGGAATIGEVSSMFYYGGTFTLSRAFGNFTVSGFFASIIGLIILLVSVIRKAKPEEVLVLVWSILMLFAIYGQNRFAYYYSINVSILSAYIGGLLLEKVKWNELDEKFKSSVKSPADIPGFLKSFRAKQVLAVLAIAVFLIYPVYGAAMVQSTGSNDPDWAWIEACLWLKSSTPDPGMDYNAIYEAPEDGKLFDYPESAYGVMSWWDYGHYIETLGHRMPNANPFQAGIGGRRGSINETNVPGAAPFLTAQSEEEATEVLESIHPDPEKSGARYIMSDERMAVDIFMAMPEWTLDTEGYMQPYWTGDGYQYLPSKRYFDSMESRLHFLDGNGLKQYRLVYETWAYQTQEAGYKQVYNFLYGSSIPEVDSGYVKIFEYVKGAKITGTVSPNETVNINTTILTGQGRTFEYSQSTSSDSEGRYEFIVPYSTEGPIPGETQFDTAPTGAYVVSYGDTTTEVRVSEEAVLNGEEIKV | failed |
| MNSEQADILDLLSGHTDDTTIERLAFECLLTNMTDDRVVSLMNILGWQGDFNCFAIGGVPSASLASTSLAIRKAVRDLGGEHVVIGTYGTFLLALACQMGAVTPEVTCTAVMPAFSEDEPLYLSPVRSGVAGASHALRETMFSLQAAPALSTPSRPLRADELLPERALLGDDYAREELYRNVYQVLRGENPDDPTYLTVSTFLKYGSSLENTAKELNVHPNTVRYRLKRAAETTGWDATDPRDAYVLTTALAIGRMRDR | not failed |
| MNSFKEGEYVLIRFGEKKFLRKLLPKQSLSVKKSVLKFDEVIGKPEGVKINGFEVYRPTLEEIILLGFERKTQIIYPKDSFYIALKLNLNKEKRVLEFGTGSGALLAVLSEVAGEVWTFEAVEEFYKTAQKNLKKFNLGKNVKFFNVDFKDAEVPEGIFHAAFVDVREPWHYLEKVHKSLMEGAPVGFLLPTANQVIKLLESIENYFGNLEVVEILHRHYKTISERFRPEDQMVAHTAYLVFGRKLKT | not failed |
| MNSGDNIIKKKSFTFAVRIVNLYKVLSSEIKEFVMSKQLLRSGTSVGANIREALNAQSKPGFIHKLAISQKECDETGYTNNVEFESMNTDAIELLKIVRSIIMTSKKNIIHNSLEHHHHHH | failed |

From a protein production outcome set (Wang et al. 2014)
